Where a chain is given by its changes, count along the chain named. Values belong to the binder of their own block, whether it stands above or below them.
What was measured:
Experiment in all cases: SPR, relative to GpH7-A5/GpH7-B3/GpL16-k0 =100
FcγRIIb = target: T1, FcγRIIb (human, UniProt P31994 43-217)
T1 construct: extracellular domain; also called 2b
T1 sequence: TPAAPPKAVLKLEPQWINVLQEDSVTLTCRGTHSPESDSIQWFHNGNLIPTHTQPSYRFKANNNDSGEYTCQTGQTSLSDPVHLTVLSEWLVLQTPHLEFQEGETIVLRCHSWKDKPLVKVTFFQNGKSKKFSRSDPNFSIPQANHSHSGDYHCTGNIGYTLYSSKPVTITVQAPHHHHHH

FcγRIa = target: T2, FcγRIa (human, UniProt P12314 16-292)
T2 construct: extracellular domain; also called 1a

FcγRIIa(H) = target: T3, FcγRIIa(H) (human, UniProt P12318 34-217)
T3 construct: extracellular domain; also called 2aH
T3 sequence: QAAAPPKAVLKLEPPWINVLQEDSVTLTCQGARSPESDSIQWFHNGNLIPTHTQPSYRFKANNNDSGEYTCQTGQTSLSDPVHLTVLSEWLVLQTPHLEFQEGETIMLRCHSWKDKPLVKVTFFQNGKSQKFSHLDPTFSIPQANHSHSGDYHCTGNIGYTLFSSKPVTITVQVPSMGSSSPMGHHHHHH

FcγRIIa(R) = target: T4, FcγRIIa(R) (human, UniProt P12318 34-217)
T4 construct: extracellular domain; also called 2aR
T4 sequence: T3 sequence with H134R

T2 sequence (P12314 other isoform, or with tags, fused parts or gaps): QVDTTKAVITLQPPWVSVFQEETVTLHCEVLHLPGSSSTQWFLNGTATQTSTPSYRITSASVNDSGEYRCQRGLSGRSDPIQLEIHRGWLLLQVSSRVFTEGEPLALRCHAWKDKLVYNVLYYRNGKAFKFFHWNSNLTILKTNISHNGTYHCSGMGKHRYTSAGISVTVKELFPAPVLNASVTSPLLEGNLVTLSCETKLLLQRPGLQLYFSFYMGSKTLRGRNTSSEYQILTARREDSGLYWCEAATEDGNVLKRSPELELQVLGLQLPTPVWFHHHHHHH

He/Con 2b (FcγRIIb): 90.5%
He/Con 1a (FcγRIa): 108%
He/Con 2aH (FcγRIIa(H)): 94.3%
He/Con 2aR (FcγRIIa(R)): 97.9%
B2: GpH7-A5/GpH7-B3 variant Y296_19Q/GpL16-k0 (antibody, human IgG1, kappa)
heavy 1: not shown
heavy 2: not shown
light: DIVMTQSPLSLPVTPGEPASISCQASESLVHSNRNTYLHWYLQKPGQSPQLLIYKVSNRFSGVPDRFSGSGSGTDFTLKISRVEAEDVGVYYCSQNTHVPPTFGQGTKVEIERTVAAPSVFIFPPSDEQLKSGTASVVCLLNNFYPREAKVQWKVDNALQSGNSQESVTEQDSKDSTYSLSSTLTLSKADYEKHKVYACEVTHQGLSSPVTKSFNRGEC
notes: He Ab: heterodimerized IgG1, one H chain mutated

He/Con 2b (FcγRIIb): 105%
He/Con 1a (FcγRIa): 107%
He/Con 2aH (FcγRIIa(H)): 95.4%
He/Con 2aR (FcγRIIa(R)): 105%
B3: GpH7-A5/GpH7-B3 variant Y296_20W/GpL16-k0 (antibody, human IgG1, kappa)
heavy 1: not shown
heavy 2: not shown
light: B2 light
notes: as for B2

He/Con 2b (FcγRIIb): 85.5%
He/Con 1a (FcγRIa): 101%
He/Con 2aH (FcγRIIa(H)): 92.7%
He/Con 2aR (FcγRIIa(R)): 96.7%
B4: GpH7-A5/GpH7-B3 variant Y296_07I/GpL16-k0 (antibody, human IgG1, kappa)
heavy 1: not shown
heavy 2: not shown
light: B2 light
notes: as for B2

He/Con 2b (FcγRIIb): 80.5%
He/Con 1a (FcγRIa): 103%
He/Con 2aH (FcγRIIa(H)): 89.1%
He/Con 2aR (FcγRIIa(R)): 95.3%
B5: GpH7-A5/GpH7-B3 variant Y296_12R/GpL16-k0 (antibody, human IgG1, kappa)
heavy 1: not shown
heavy 2: not shown
light: B2 light
notes: as for B2

He/Con 2b (FcγRIIb): 63.2%
He/Con 1a (FcγRIa): 110%
He/Con 2aH (FcγRIIa(H)): 82.6%
He/Con 2aR (FcγRIIa(R)): 66.6%
B8: GpH7-A5/GpH7-B3 variant Y300_01G/GpL16-k0 (antibody, human IgG1, kappa)
heavy 1: not shown
heavy 2: not shown
light: B2 light
notes: as for B2

He/Con 2b (FcγRIIb): 93.5%
He/Con 1a (FcγRIa): 103%
He/Con 2aH (FcγRIIa(H)): 101%
He/Con 2aR (FcγRIIa(R)): 100%
B9: GpH7-A5/GpH7-B3 variant Y296_16H/GpL16-k0 (antibody, human IgG1, kappa)
heavy 1: not shown
heavy 2: not shown
light: B2 light
notes: as for B2

He/Con 2b (FcγRIIb): 87.5%
He/Con 1a (FcγRIa): 102%
He/Con 2aH (FcγRIIa(H)): 96.1%
He/Con 2aR (FcγRIIa(R)): 97.5%
B12: GpH7-A5/GpH7-B3 variant Y296_13S/GpL16-k0 (antibody, human IgG1, kappa)
heavy 1: not shown
heavy 2: not shown
light: B2 light
notes: as for B2

He/Con 2b (FcγRIIb): 96.5%
He/Con 1a (FcγRIa): 110%
He/Con 2aH (FcγRIIa(H)): 109%
He/Con 2aR (FcγRIIa(R)): 96.8%
B17: GpH7-A5/GpH7-B3 variant Y300_03V/GpL16-k0 (antibody, human IgG1, kappa)
heavy 1: not shown
heavy 2: not shown
light: B2 light
notes: as for B2

Second part, the binder before the results:

B1: GpH7-A5/GpH7-B3 variant S324_06M/GpL16-k0 (antibody, human IgG1, kappa)
heavy 1: not shown
heavy 2: not shown
light: B2 light
notes: as for B2
He/Con 2b (FcγRIIb): 126%
He/Con 1a (FcγRIa): 104%
He/Con 2aH (FcγRIIa(H)): 122%
He/Con 2aR (FcγRIIa(R)): 118%

B6: GpH7-A5/GpH7-B3 variant Y296_04F/GpL16-k0 (antibody, human IgG1, kappa)
heavy 1: not shown
heavy 2: not shown
light: B2 light
notes: as for B2
He/Con 2b (FcγRIIb): 101%
He/Con 1a (FcγRIa): 101%
He/Con 2aH (FcγRIIa(H)): 97.8%
He/Con 2aR (FcγRIIa(R)): 105%

B7: GpH7-A5/GpH7-B3 variant Y296_06M/GpL16-k0 (antibody, human IgG1, kappa)
heavy 1: not shown
heavy 2: not shown
light: B2 light
notes: as for B2
He/Con 2b (FcγRIIb): 89%
He/Con 1a (FcγRIa): 101%
He/Con 2aH (FcγRIIa(H)): 94.2%
He/Con 2aR (FcγRIIa(R)): 96.8%

B10: GpH7-A5/GpH7-B3 variant Y296_01G/GpL16-k0 (antibody, human IgG1, kappa)
heavy 1: not shown
heavy 2: not shown
light: B2 light
notes: as for B2
He/Con 2b (FcγRIIb): 80.4%
He/Con 1a (FcγRIa): 99.4%
He/Con 2aH (FcγRIIa(H)): 91.6%
He/Con 2aR (FcγRIIa(R)): 91.6%

B11: GpH7-A5/GpH7-B3 variant S324_10E/GpL16-k0 (antibody, human IgG1, kappa)
heavy 1: not shown
heavy 2: not shown
light: B2 light
notes: as for B2
He/Con 2b (FcγRIIb): 101%
He/Con 1a (FcγRIa): 98.9%
He/Con 2aH (FcγRIIa(H)): 114%
He/Con 2aR (FcγRIIa(R)): 99%

B13: GpH7-A5/GpH7-B3 variant S324_11K/GpL16-k0 (antibody, human IgG1, kappa)
heavy 1: not shown
heavy 2: not shown
light: B2 light
notes: as for B2
He/Con 2b (FcγRIIb): 89.6%
He/Con 1a (FcγRIa): 96.3%
He/Con 2aH (FcγRIIa(H)): 102%
He/Con 2aR (FcγRIIa(R)): 91%

B14: GpH7-A5/GpH7-B3 variant S324_18N/GpL16-k0 (antibody, human IgG1, kappa)
heavy 1: not shown
heavy 2: not shown
light: B2 light
notes: as for B2
He/Con 2b (FcγRIIb): 106%
He/Con 1a (FcγRIa): 109%
He/Con 2aH (FcγRIIa(H)): 109%
He/Con 2aR (FcγRIIa(R)): 101%

B15: GpH7-A5/GpH7-B3 variant S324_09D/GpL16-k0 (antibody, human IgG1, kappa)
heavy 1: not shown
heavy 2: not shown
light: B2 light
notes: as for B2
He/Con 2b (FcγRIIb): 112%
He/Con 1a (FcγRIa): 97.7%
He/Con 2aH (FcγRIIa(H)): 117%
He/Con 2aR (FcγRIIa(R)): 102%

B16: GpH7-A5/GpH7-B3 variant Y296_03V/GpL16-k0 (antibody, human IgG1, kappa)
heavy 1: not shown
heavy 2: not shown
light: B2 light
notes: as for B2
He/Con 2b (FcγRIIb): 80.4%
He/Con 1a (FcγRIa): 101%
He/Con 2aH (FcγRIIa(H)): 86.9%
He/Con 2aR (FcγRIIa(R)): 92%

— patent US20260167699A1 (Chugai, published 2026)
